According to the supplement of paper PMC11316812:
± gives the standard deviation of the averaged measurements.

Legend:
MCF7 = assay: percentage of EdU-negative (G0-arrested) nuclei per well, 72 h; higher = more G0 arrest; conditions: reference: sequence is the full UniProt precursor, the tested protein was the secreted form or ectodomain
hTERT-HMEC = assay: as above; conditions: reference: sequence is the full UniProt precursor, the tested protein was the secreted form or ectodomain
[1] = protein concentration 0.03125 µM
[2] = protein concentration 0.3125 µM
[3] = protein concentration 0.0225 µM
[4] = protein concentration 0.03054 µM
[5] = protein concentration 0.3054 µM
[6] = protein concentration 0.0187725 µM
[7] = protein concentration 0.187725 µM
[8] = protein concentration 0.0286875 µM
[9] = protein concentration 0.286875 µM
[10] = protein concentration 0.0095 µM
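Further: secreted proteins added to cultured cells, EdU pulse at the end, nuclei found by Hoechst imaging, EdU status from nuclear versus surrounding ring intensity ratio, PBS as neutral control.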

MKALLALPLLLLLSTPPCAPQVSGIRGDALERFCLQQPLDCDDIYAQGYQSDGVYLIYPSGPSVPVPVFCDMTTEGGKWTVFQKRFNGSVSFFRGWNDYKLGFGRADGEYWLGLQNMHLLTLKQKYELRVDLEDFENNTAYAKYADFSISPNAVSAEEDGYTLFVAGFEDGGAGDSLSYHSGQKFSTFDRDQDLFVQNCAALSSGAFWFRSCHFANLNGFYLGGSHLSYANGINWAQWKGFYYSLKRTEMKIRRA
percentage of EdU-negative (MCF7; [1]): 22.9 ± 0.61%
percentage of EdU-negative (MCF7; [2]): 26.2 ± 3.4%
percentage of EdU-negative (hTERT-HMEC; [1]): 4.11 ± 0.33%
percentage of EdU-negative (hTERT-HMEC; [2]): 4.91 ± 0.91%

MKASSLAFSLLSAAFYLLWTPSTGLKTLNLGSCVIATNLQEIRNGFSEIRGSVQAKDGNIDIRILRRTESLQDTKPANRCCLLRHLLRLYLDRVFKNYQTPDHYTLRKISSLANSFLTIKKDLRLCHAHMTCHCGEEAMKKYSQILSHFEKLEPQAAVVKALGELDILLQWMEETE [Q9NYY1]
percentage of EdU-negative (MCF7; [3]): 25.2 ± 0.85%
percentage of EdU-negative (MCF7; protein concentration 0.225 µM): 27.2 ± 2.3%
percentage of EdU-negative (hTERT-HMEC; [3]): 4.59 ± 0.14%
percentage of EdU-negative (hTERT-HMEC; protein concentration 0.225 µM): 8.36 ± 0.57%

MKATIILLLLAQVSWAGPFQQRGLFDFMLEDEASGIGPEVPDDRDFEPSLGPVCPFRCQCHLRVVQCSDLGLDKVPKDLPPDTTLLDLQNNKITEIKDGDFKNLKNLHALILVNNKISKVSPGAFTPLVKLERLYLSKNQLKELPEKMPKTLQELRAHENEITKVRKVTFNGLNQMIVIELGTNPLKSSGIENGAFQGMKKLSYIRIADTNITSIPQGLPPSLTELHLDGNKISRVDAASLKGLNNLAKLGLSFNSISAVDNGSLANTPHLRELHLDNNKLTRVPGGLAEHKYIQVVYLHNNNISVVGSSDFCPPGHNTKKASYSGVSLFSNPVQYWEIQPSTFRCVYVRSAIQLGNYK
percentage of EdU-negative (MCF7; [4]): 24 ± 3.8%
percentage of EdU-negative (MCF7; [5]): 26.5 ± 1.1%
percentage of EdU-negative (hTERT-HMEC; [4]): 5.5 ± 0.71%
percentage of EdU-negative (hTERT-HMEC; [5]): 6.07 ± 0.48%

MKAWGTVVVTLATLMVVTVDAKIYERCELAARLERAGLNGYKGYGVGDWLCMAHYESGFDTAFVDHNPDGSSEYGIFQLNSAWWCDNGITPTKNLCHMDCHDLLNRHILDDIRCAKQIVSSQNGLSAWTSWRLHCSGHDLSEWLKGCDMHVKIDPKIHP [Q96QH8]
percentage of EdU-negative (MCF7; [3]): 25.8 ± 1.2%
percentage of EdU-negative (MCF7; protein concentration 0.225 µM): 25.03 ± 0.22%
percentage of EdU-negative (hTERT-HMEC; [3]): 6.28 ± 1.5%
percentage of EdU-negative (hTERT-HMEC; protein concentration 0.225 µM): 7.91 ± 0.26%

MKENVASATVFTLLLFLNTCLLNGQLPPGKPEIFKCRSPNKETFTCWWRPGTDGGLPTNYSLTYHREGETLMHECPDYITGGPNSCHFGKQYTSMWRTYIMMVNATNQMGSSFSDELYVDVTYIVQPDPPLELAVEVKQPEDRKPYLWIKWSPPTLIDLKTGWFTLLYEIRLKPEKAAEWEIHFAGQQTEFKILSLHPGQKYLVQVRCKPDHGYWSAWSPATFIQIPSDFTMNDTTVWISVAVLSAVICLIIVWAVALKGYSMVTCIFPPVPGPKIKGFDAHLLEKGKSEELLSALGCQDFPPTSDYEDLLVEYLEVDDSEDQHLMSVHSKEHPSQGMKPTYLDPDTDSGRGSCDSPSLLSEKCEEPQANPSTFYDPEVIEKPENPETTHTWDPQCISMEGKIPYFHAGGSKCSTWPLPQPSQHNPRSSYHNITDVCELAVGPAGAPATLLNEAGKDALKSSQTIKSREEGKATQQREVESFHSETDQDTPWLLPQEKTPFGSAKPLDYVEIHKVNKDGALSLLPKQRENSGKPKKPGTPENNKEYAKVSGVMDNNILVLVPDPHAKNVACFEESAKEAPPSLEQNQAEKALANFTATSSKCRLQLGGLDYLDPACFTHSFH
percentage of EdU-negative (MCF7; [1]): 26.2 ± 3.5%
percentage of EdU-negative (MCF7; [2]): 26.4 ± 0.51%
percentage of EdU-negative (hTERT-HMEC; [1]): 4.8 ± 0.32%
percentage of EdU-negative (hTERT-HMEC; [2]): 5.37 ± 0.74%

MKENYCLQAALVCLGMLCHSHAFAPERRGHLRPSFHGHHEKGKEGQVLQRSKRGWVWNQFFVIEEYTGPDPVLVGRLHSDIDSGDGNIKYILSGEGAGTIFVIDDKSGNIHATKTLDREERAQYTLMAQAVDRDTNRPLEPPSEFIVKVQDINDNPPEFLHETYHANVPERSNVGTSVIQVTASDADDPTYGNSAKLVYSILEGQPYFSVEAQTGIIRTALPNMDREAKEEYHVVIQAKDMGGHMGGLSGTTKVTITLTDVNDNPPKFPQSVYQMSVSEAAVPGEEVGRVKAKDPDIGENGLVTYNIVDGDGMESFEITTDYETQEGVIKLKKPVDFETKRAYSLKVEAANVHIDPKFISNGPFKDTVTVKISVEDADEPPMFLAPSYIHEVQENAAAGTVVGRVHAKDPDAANSPIRYSIDRHTDLDRFFTINPEDGFIKTTKPLDREETAWLNITVFAAEIHNRHQEAKVPVAIRVLDVNDNAPKFAAPYEGFICESDQTKPLSNQPIVTISADDKDDTANGPRFIFSLPPEIIHNPNFTVRDNRDNTAGVYARRGGFSRQKQDLYLLPIVISDGGIPPMSSTNTLTIKVCGCDVNGALLSCNAEAYILNAGLSTGALIAILACIVILLVIVVLFVTLRRQKKEPLIVFEEEDVRENIITYDDEGGGEEDTEAFDIATLQNPDGINGFIPRKDIKPEYQYMPRPGLRPAPNSVDVDDFINTRIQEADNDPTAPPYDSIQIYGYEGRGSVAGSLSSLESATTDSDLDYDYLQNWGPRFKKLADLYGSKDTFDDDS
percentage of EdU-negative (MCF7; [3]): 25.4 ± 0.51%
percentage of EdU-negative (MCF7; protein concentration 0.225 µM): 32.3 ± 2%
percentage of EdU-negative (hTERT-HMEC; [3]): 5.18 ± 0.56%
percentage of EdU-negative (hTERT-HMEC; protein concentration 0.225 µM): 9.88 ± 1.5%

MKEYVLLLFLALCSAKPFFSPSHIALKNMMLKDMEDTDDDDDDDDDDDDDDEDNSLFPTREPRSHFFPFDLFPMCPFGCQCYSRVVHCSDLGLTSVPTNIPFDTRMLDLQNNKIKEIKENDFKGLTSLYGLILNNNKLTKIHPKAFLTTKKLRRLYLSHNQLSEIPLNLPKSLAELRIHENKVKKIQKDTFKGMNALHVLEMSANPLDNNGIEPGAFEGVTVFHIRIAEAKLTSVPKGLPPTLLELHLDYNKISTVELEDFKRYKELQRLGLGNNKITDIENGSLANIPRVREIHLENNKLKKIPSGLPELKYLQIIFLHSNSIARVGVNDFCPTVPKMKKSLYSAISLFNNPVKYWEMQPATFRCVLSRMSVQLGNFGM [Q9BXN1]
percentage of EdU-negative (MCF7; [6]): 26.18 ± 0.19%
percentage of EdU-negative (MCF7; [7]): 26.9 ± 3.7%
percentage of EdU-negative (hTERT-HMEC; [6]): 4.7 ± 0.51%
percentage of EdU-negative (hTERT-HMEC; [7]): 4.97 ± 0.19%

MKFFLLLFTIGFCWAQYSPNTQQGRTSIVHLFEWRWVDIALECERYLAPKGFGGVQVSPPNENVAIHNPFRPWWERYQPVSYKLCTRSGNEDEFRNMVTRCNNVGVRIYVDAVINHMSGNAVSAGTSSTCGSYFNPGSRDFPAVPYSGWDFNDGKCKTGSGDIENYNDATQVRDCRLVGLLDLALEKDYVRSKIAEYMNHLIDIGVAGFRLDASKHMWPGDIKAILDKLHNLNSNWFPAGSKPFIYQEVIDLGGEPIKSSDYFGNGRVTEFKYGAKLGTVIRKWNGEKMSYLKNWGEGWGFMPSDRALVFVDNHDNQRGHGAGGASILTFWDARLYKMAVGFMLAHPYGFTRVMSSYRWPRQFQNGNDVNDWVGPPNNNGVIKEVTINPDTTCGNDWVCEHRWRQIRNMVNFRNVVDGQPFTNWYDNGSNQVAFGRGNRGFIVFNNDDWTFSLTLQTGLPAGTYCDVISGDKINGNCTGIKIYVSDDGKAHFSISNSAEDPFIAIHAESKL
percentage of EdU-negative (MCF7; [3]): 25 ± 4.2%
percentage of EdU-negative (MCF7; protein concentration 0.225 µM): 31.3 ± 2.5%
percentage of EdU-negative (hTERT-HMEC; [3]): 6.12 ± 0.67%
percentage of EdU-negative (hTERT-HMEC; protein concentration 0.225 µM): 7.06 ± 0.1%

MKFFLLLFTIGFCWAQYSPNTQQGRTSIVHLFEWRWVDIALECERYLAPKGFGGVQVSPPNENVAIYNPFRPWWERYQPVSYKLCTRSGNEDEFRNMVTRCNNVGVRIYVDAVINHMCGNAVSAGTSSTCGSYFNPGSRDFPAVPYSGWDFNDGKCKTGSGDIENYNDATQVRDCRLTGLLDLALEKDYVRSKIAEYMNHLIDIGVAGFRLDASKHMWPGDIKAILDKLHNLNSNWFPAGSKPFIYQEVIDLGGEPIKSSDYFGNGRVTEFKYGAKLGTVIRKWNGEKMSYLKNWGEGWGFVPSDRALVFVDNHDNQRGHGAGGASILTFWDARLYKMAVGFMLAHPYGFTRVMSSYRWPRQFQNGNDVNDWVGPPNNNGVIKEVTINPDTTCGNDWVCEHRWRQIRNMVIFRNVVDGQPFTNWYDNGSNQVAFGRGNRGFIVFNNDDWSFSLTLQTGLPAGTYCDVISGDKINGNCTGIKIYVSDDGKAHFSISNSAEDPFIAIHAESKL
percentage of EdU-negative (MCF7; [8]): 25.6 ± 0.39%
percentage of EdU-negative (MCF7; [9]): 26.4 ± 0.48%
percentage of EdU-negative (hTERT-HMEC; [8]): 5.1 ± 0.51%
percentage of EdU-negative (hTERT-HMEC; [9]): 11.4 ± 1.2%

MKFQGPLACLLLALCLGSGEAGPLQSGEESTGTNIGEALGHGLGDALSEGVGKAIGKEAGGAAGSKVSEALGQGTREAVGTGVRQVPGFGVADALGNRVGEAAHALGNTGHEIGRQAEDVIRHGADAVRGSWQGVPGHNGAWETSGGHGIFGSQGGLGGQGQGNPGGLGTPWVHGYPGNSAGSFGMNPQGAPWGQGGNGGPPNFGTNTQGAVAQPGYGSVRASNQNEGCTNPPPSGSGGGSSNSGGGSGSQSGSSGSGSNGDNNNGSSSGGSSSGSSSGGSSGGSSGGSSGNSGGSRGDSGSESSWGSSTGSSSGNHGGSGGGNGHKPGCEKPGNEARGSGESGIQNSETSPGMFNFDTFWKNFKSKLGFINWDAINKNQVPPPSTRALLYFSRLWEDFKQNTPFLNWKAIIEGADASSLQKRAGRDDQNYNYNQHAYPTAYGGKYSVKTPAKGGVSPSSSASRVQPGLLQWVKFW [Q6E0U4]
percentage of EdU-negative (MCF7; [10]): 27.8 ± 1.4%
percentage of EdU-negative (MCF7; protein concentration 0.095 µM): 27.7 ± 1.7%
percentage of EdU-negative (hTERT-HMEC; [10]): 4.68 ± 0.29%
percentage of EdU-negative (hTERT-HMEC; protein concentration 0.095 µM): 24.6 ± 4.2%
